Experimental data published in the supplement of paper PMC12667976.
± gives the standard error.

B1: library; numbered along this chain (parent)
chain: MATDAALRRLLRLHRTEIAVAVDSAFPLLHALADHDVVPEDKFQETLHLKEKEGCPQAFHALLSWLLTQDSTAILDFWRVLFKDYNLERYGRLQPILDSFPKDVDLSQPRKGRKPPAVPKALVPPPRLPTKRKASEEARAAAPAALTPRGTASPGSQLKAKPPKKPESSAEQQRLPLGNGIQTMSASVQRAVAMSSGDVPGARGAVEGILIQQVFESGGSKKCIQVGGEFYTPSKFEDSGSGKNKARSSSGPKPLVRAKGAQGAAPGGGEARLGQQGSVPAPLALPSDPQLHQKNEDECAVCRDGGELICCDGCPRAFHLACLSPPLREIPSGTWRCSSCLQATVQEVQPRAEEPRPQEPPVETPLPPGLRSAGEEVRGPPGEPLAGMDTTLVYKHLPAPPSAAPLPGLDSSALHPLLCVGPEGQQNLAPGARCGVCGDGTDVLRCTHCAAAFHWRCHFPAGTSRPGTGLRCRSCSGDVTPAPVEGVLAPSPARLAPGPAKDDTASHEPALHRDDLESLLSEHTFDGILQWAIQSMARPAAPFPS

Variants of: B1
Assay: AIRE transcriptional activation functional score (insulin promoter-GFP; nonsense median 0, synonymous median 1) (normalised score); higher = higher AIRE activity (more reporter activation)
Conditions: with insulin promoter-GFP reporter in HEK293
Procedure: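 Deep mutational scan of full-length human AIRE (codon-optimized cDNA, DT-POPCode NNN libraries over three regions) integrated at a Bxb1 landing pad in HEK293 cells carrying an insulin core promoter-GFP reporter at a Flp-In site. Cells were sorted for the top 10% GFP about 14 days after transfection. Variant frequency log-ratios (select vs non-select, TileSeq) were rescaled so that the nonsense median is 0 and the synonymous median is 1, then averaged over biological replicates.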

AIRE transcriptional activation functional score: each site, then its substitutions
K42: V 0.822 ± 0.85, I 0.472 ± 0.67, D -1.69 ± 0.68, C -0.000636 ± 0.22, A -0.323 ± 0.43, T -0.0654 ± 0.27, N 0.98 ± 0.81, M 0.538 ± 0.17, G -0.403 ± 0.21, L 0.0963 ± 0.73, E -0.598 ± 0.44, H 0.0173 ± 0.08, F 0.0107 ± 0.18, S 0.172 ± 0.31, R -0.281 ± 0.49, Q 0.53 ± 0.32, Y -0.464 ± 0.26, P -0.0735 ± 0.34, W -0.0922 ± 0.25
K52: N -0.178 ± 0.3, G 0.435 ± 0.41, C -0.346 ± 0.18, D 0.601 ± 0.17, W -0.861 ± 0.18, M 2.46 ± 0.48, H -0.455 ± 0.25, I 0.794 ± 0.38, T 1.21 ± 0.53, V 1.38 ± 0.28, S 0.883 ± 0.3, F 0.16 ± 0.23, R 0.664 ± 0.35, P -0.13 ± 0.73, A 1.01 ± 0.14, Q -0.353 ± 0.24, Y 0.198 ± 0.39, E 0.994 ± 0.58, L 1.11 ± 0.4
H48: S -0.318 ± 0.087, P -0.897 ± 0.77, T 0.372 ± 0.13, G 0.181 ± 0.13, N 0.738 ± 0.44, L 0.44 ± 0.59, V 1.53 ± 0.17, Y 1.23 ± 0.53, C 0.651 ± 0.54, R 1.64 ± 0.88, Q 1.5 ± 0.14
E45: A -0.429 ± 0.75, K 0.348 ± 1.1, Y -0.129 ± 0.15, C -2.39 ± 0.2, M -1.43 ± 0.084, I -1.78 ± 0.28, Q 1.17 ± 0.82, R -0.0981 ± 0.15, D 0.278 ± 0.12, T -0.232 ± 0.066, S -0.772 ± 0.39, L 0.233 ± 0.38, W 1.17 ± 0.13, H -0.452 ± 0.067, V 0.134 ± 0.25, F 0.576 ± 0.049, G 0.0251 ± 0.41
T46: A 0.0907 ± 0.95, V -0.0333 ± 0.38, I 0.403 ± 0.67, D -0.445 ± 0.23, Y 0.503 ± 0.35, F -1.2 ± 0.75, G -0.878 ± 0.15, C 0.841 ± 0.26, L -0.561 ± 0.72, H 0.478 ± 0.15, E 1.4 ± 0.057, N -0.328 ± 0.33, R 0.389 ± 0.22, S 0.455 ± 0.51, M 2.55 ± 0.11, K -3.42 ± 0.23
F59: D 0.139 ± 0.28, G 0.194 ± 0.51, L 0.0546 ± 0.18, H 0.308 ± 0.5, M 0.656 ± 0.15, A 0.101 ± 0.57, C -0.268 ± 0.16, K 0.387 ± 0.09, I 0.997 ± 0.48, E 0.561 ± 0.19
C55: H 0.145 ± 0.14, S -0.196 ± 0.59, I 1.19 ± 0.74, Q -0.411 ± 0.27, G -0.175 ± 0.35, A -0.603 ± 0.34, N -0.172 ± 0.48, R 0.308 ± 0.33, W -0.244 ± 0.25, F 0.897 ± 0.1, V 0.628 ± 0.59, T 1.49 ± 0.65, L -0.0993 ± 1.2, P 0.602 ± 0.51, D 0.495 ± 0.29, Y 0.622 ± 0.23
L47: A 0.636 ± 0.44, C -0.421 ± 0.3, K -1.23 ± 0.61, V 0.302 ± 0.51, F 0.568 ± 0.16, T -0.713 ± 0.1, S 0.462 ± 0.4, G 0.313 ± 0.19, I -0.62 ± 0.23, R -0.624 ± 0.19, W -0.717 ± 0.15
E51: F -0.754 ± 0.3, Q 0.593 ± 0.1, S -0.885 ± 0.57, T -0.0714 ± 0.14, A 0.128 ± 0.27, Y -0.775 ± 0.19, L 0.248 ± 0.5, N -2.61 ± 0.17, D 0.852 ± 0.23, V 0.0642 ± 0.14, R 0.215 ± 0.32, H 0.0447 ± 0.07, M -1.54 ± 0.85, P -0.179 ± 0.61, W -0.495 ± 0.11, I -1.54 ± 0.37, G 0.279 ± 0.29, K 0.391 ± 0.53, C -0.0446 ± 0.41
D41: F 0.468 ± 0.092, W 0.551 ± 0.1, S 0.72 ± 0.4, P 0.148 ± 0.081, R 0.0782 ± 0.29, G 0.147 ± 0.57, K -1.32 ± 0.19, H -1.75 ± 0.19, E 1.17 ± 0.67, C 1.39 ± 0.13, I -1.3 ± 0.24, T 0.827 ± 0.14, A 1.59 ± 0.35, V 0.0716 ± 0.31, Y 1.79 ± 0.26, L 0.547 ± 0.53, N 1.79 ± 0.15
E40: Q 0.577 ± 0.37, K -0.28 ± 0.19, S 0.167 ± 0.41, W -0.133 ± 0.065, T -0.598 ± 1.6, G -0.121 ± 0.23, L 0.272 ± 0.29, Y -0.301 ± 0.13, R -0.956 ± 0.6, I 0.121 ± 0.83, V 0.0752 ± 0.28, P 0.61 ± 0.58, F -0.259 ± 0.34, N -0.324 ± 0.28, H -0.15 ± 0.22
Q57: N -0.0973 ± 0.88, M -0.643 ± 0.11, G -0.774 ± 0.8, E 0.685 ± 0.54, W -0.29 ± 0.23, S 0.217 ± 0.41, T 0.369 ± 0.64, F 0.269 ± 0.08, K 1.12 ± 0.16, C -0.141 ± 0.37, P -0.527 ± 0.52, H -0.168 ± 0.11, A 1.25 ± 0.88, R 0.643 ± 0.75, V 0.739 ± 0.5, Y 0.535 ± 0.2, L 1.41 ± 0.39, I 0.761 ± 0.91
K50: F -0.139 ± 0.12, E 0.64 ± 0.64, M 0.465 ± 0.05, R 0.745 ± 0.42, H 0.46 ± 0.27, V 0.73 ± 0.45, N 1.59 ± 0.23, C 0.454 ± 0.28, I 0.717 ± 0.35, G 1.42 ± 0.11, A -0.833 ± 0.5, D 1.78 ± 0.2, W 0.149 ± 0.11, L 0.404 ± 0.62, S 2.07 ± 0.82, T 0.51 ± 0.5, P -0.341 ± 0.68, Y -0.654 ± 0.44
E53: F 0.611 ± 0.43, G -0.0905 ± 0.58, Q 0.948 ± 0.95, S 0.701 ± 0.54, K 1.55 ± 0.32, M 0.544 ± 0.27, P -0.371 ± 0.49, I 1.49 ± 0.51, H 0.435 ± 0.54, D 0.593 ± 0.21, N 0.151 ± 0.6, A 1.12 ± 0.17, Y -0.0622 ± 1.2, T 1.37 ± 0.61, L 1.14 ± 0.54, R -0.133 ± 0.6, C 1.45 ± 0.33, V 1.36 ± 0.5, W 1.2 ± 0.36
L49: P -0.173 ± 0.43, C -0.191 ± 0.94, Y 0.268 ± 0.6, S -0.858 ± 0.78, N -0.822 ± 0.12, R 1.04 ± 0.72, G -0.0766 ± 0.54, Q -0.302 ± 0.092, H -0.538 ± 0.091, I -0.275 ± 1.4, A 0.327 ± 0.31, M 0.566 ± 0.42, D -0.689 ± 0.07, W -0.0359 ± 0.22, T -0.364 ± 0.53, F 0.262 ± 0.49, V 0.492 ± 0.31
A58: N -1.13 ± 0.62, M -0.0857 ± 0.12, H -0.263 ± 0.4, P -0.271 ± 0.71, W 0.0998 ± 0.12, V 0.221 ± 0.19, F 0.0934 ± 0.1, D 0.158 ± 0.1, Q -0.509 ± 0.4, S -0.0331 ± 0.37, G -0.107 ± 0.23, E -0.0545 ± 0.48, L 0.0439 ± 0.2, I -0.388 ± 0.57, R 0.31 ± 0.42, C -0.141 ± 0.25, T 0.166 ± 0.52, Y -0.204 ± 0.2, K -1.14 ± 0.57
Q44: R 0.783 ± 0.72, K 1.33 ± 0.33, G 0.0554 ± 0.5, H -0.545 ± 0.61, S 0.392 ± 0.37, Y 0.0762 ± 0.39, I 0.916 ± 0.89, W 0.23 ± 0.49, V 0.735 ± 0.82, D 0.948 ± 0.073, M -0.749 ± 0.2, T 0.288 ± 0.37, C -0.0407 ± 0.22, F 1.98 ± 0.19, P -0.185 ± 0.28, E -0.441 ± 0.47, N 0.983 ± 0.35, A 0.712 ± 0.51, L 0.658 ± 0.61
P56: F 0.968 ± 0.21, A 0.549 ± 0.53, M -0.903 ± 0.46, V 0.829 ± 0.67, W 0.16 ± 0.16, L -0.0629 ± 0.36, D -0.102 ± 0.4, C -0.173 ± 0.26, E -1.9 ± 0.27, I 0.82 ± 0.12, R 0.352 ± 0.45, T 0.544 ± 0.39, Y -0.155 ± 0.82, G 0.501 ± 0.21, H 0.985 ± 0.52, Q 0.746 ± 0.56, K 1.48 ± 0.16, S 0.484 ± 0.56, N 0.0217 ± 0.061
F43: D -0.408 ± 0.097, I -0.197 ± 0.56, M 0.757 ± 0.1, Q -0.593 ± 0.23, E -1.08 ± 0.65, L 0.0431 ± 0.38, V 0.36 ± 0.83, T -0.219 ± 0.5, S 0.0986 ± 0.53, C 0.163 ± 0.23, A -0.325 ± 0.25, Y 0.108 ± 0.11, G 0.413 ± 0.39, R 0.134 ± 0.58, H -1.42 ± 0.58, W 0.0722 ± 0.093, P 0.556 ± 0.46
G54: Y 0.671 ± 0.86, C 0.165 ± 0.19, E 0.772 ± 0.34, Q -0.474 ± 0.064, N -1.62 ± 0.24, W 0.0658 ± 0.092, D 0.773 ± 0.27, R -0.991 ± 0.58, S -0.808 ± 0.76, V 0.385 ± 0.17, T -1.14 ± 0.59, H 0.133 ± 0.29, P -0.123 ± 0.31, I 0.416 ± 0.43, L -0.0223 ± 0.78, A -0.977 ± 0.69, M 0.663 ± 0.19, F -0.19 ± 0.42
